In a protein production outcome set (Wang et al. 2014):

Assay: label from the status in PepcDB records

## MDLRRRQWFLSAILLSAALLIDPQFSTAATASENLVFEVRSKFAGKRVKDLGALRAHDVHRHSRLLSAIDIPLGGDSQPESIGLYFAKIGLGTPSRDFHVQVDTGSDILWVNCAGCIRCPRKSDLVELTPYDVDASSTAKSVSCSDNFCSYVNQRSECHSGSTCQYVIMYGDGSSTNGYLVKDVVHLDLVTGNRQTGSTNGTIIFGCGSKQSGQLGESQAAVDGIMGFGQSNSSFISQLASQGKVKRSFAHCLDNNNGGGIFAIGEVVSPKVKTTPMLSKSAHYSVNLNAIEVGNSVLELSSNAFDSGDDKGVIIDSGTTLVYLPDAVYNPLLNEILASHPELTLHTVQESFTCFHYTDKLDRFPTVTFQFDKSVSLAVYPREYLFQVREDTWCFGWQNGGLQTKGGASLTILGDMALSNKLVVYDIENQVIGWTNHNCSGGIQVKDEESGAIYTVGAHNLSWSSSLAITKLLTLVSLLIPFFCNVAL
  protein production: not failed

## MDLSGVKKKSLLGVKENNKKSSTRAPSPTKRKDRSDEKSKDRSKDKGATKESSEKDRGRDKTRKRRSASSGSSSTRSRSSSTSSSGSSTSTGSSSGSSSSSASSRSGSSSTSRSSSSSSSSGSPSPSRRRHDNRRRSRSKSKPPKRDEKERKRRTLSPKPTKVHIGRLTRNVTKDHIMEIFSTYGKIKMIDMPVERMHPHLSKGYAYVEFENPDEAEXALKHMDGGQLMARDHCYCCVGTLASATTSRFSPPRRMLPPPPCGVGHPHG
  protein production: not failed

## MDLSSPSSFTATIDAPLRAAVFDSAVEAVLLVDPTLDQIVDANNAASALLGHDRDTLLQTRFSALHGAQLPALVVFTQAVFAKGTYWTHALTPLHADGTQLRLEYAGKLLPYRGRSLLLLTMSDLEQ
  protein production: failed

## MDNDKYLKGTTTVGVVCTDGIVLASEQRATMGHFIASKTAKKVYQIDDLVGMTTAGSVGDAQQLVRLVSVESQLYKMRRNESMTIKGIATLMSNFLNANRYYPMMVQLLIGGVDKNGPAIYSLDPMGGSIEETRISATGSGSPMAYGVLEDQYREDIAVKEGLDLAIRAIHNATKRDSASGENIDVVVITKEAFKRLDPEEVKSRRALLN
  protein production: failed

## MDNEMNYGSDYKFIPATSIESGHGIEVLRDLFCYTIQIVNICFVGNPETNDFVLVDAGMPKCANEIISIAKDRFGTNSRPKAIILTHGHFDHVGGIIELIKHWDVHVYAHQMEIPFLTGQQSYPEPDPTVEGGMVAKMSPLFPNEPIDLGNNVKALPTDGTVPHMPEFRWIHTPGHTPGHISLFREKDRTLIAGDAFVTVKQEYLYKVITQEQEISGPPRYLTTDWKAAKESVLKLEKLKPLTAVTGHGIPMSGELLSTSLKTLVQEFDKIAVPDYGKYIDKKMHLEHHHHHH
  protein production: not failed

## MDNKKLFVFIKYFTLVFMIVGIIFGGKEFNAQNITLMLILIINHQLRTFSLNKYIHKIISFILEIVLVVICNFWISGYLFTYLILLAIDANVMFKKFLASTFNVVIILIGVYFSFNYSLNYKIMNLGVSIIIIAVFYFNKYENEKKIEAQDLYDRLRISEEKLKKANRDLEMYASSVEELTLLRERNRISREIHDSVGHSLSTMVIQLGAIEKIIRKAPEKAELLTKNLRKFTQKSLDEVRAAVRAIKPKEFEEYEGILSIEELISNFKKMANIDVRLAFTKEKWSLNSDQSFVLYRIVQEFLSNSARHGRASRVDVIMAFSEKNLLVTLKDNGQGCQSIIEGVGMKSMRERVKELGGYFEYKTAPYEGFTVKIELAKREKLKVYSGGENNG
  protein production: failed

## MDNKVILVGGFHEIIELCEDNDIEIAGIIDNYLTNDTYWGYPIIGTDDKAKVLFETYKNVPVLITPDVPHVRYKLYHYYKSIGFQVASLISRDASISRSAIIGEGTIIQRGANLSSNIKIGQMVKVNTNANIMHDCLIGNYVTVAPNAVLLGKVEIDDKAYIGANATLLPSVKIGENVTVGAGSVVTKSVRPNTVVKGSPAK
  protein production: failed

## MDNLETDRLILINYTLEMIQATINGTEALEKTSGYHVSPDWPGIDFFFYLPYVLENVKKDDKMIKWTRLVVLKTENKIIGEIGGQGNPDETGEIEIGYSIVPDYQNKGYMSEALISMIDWLEHQPVINRIFARCYEQNEASIQVLKHNHFVH
  protein production: failed

## MDNPCPTCGQELEWTGQYHCSACTVDYCKVGFCPECGSELEKLQACGAANYFCNQCNELKSKSKIRFVFQPLNGNSQLEHHHHHH
  protein production: not failed

## MDNRNIDPYFNPEQFLETQKYKGTVTALIFLLLFFIFLMVAFKKAFFAQANMPNLVMSKQDTAARGTIYSQDNYSLATSQTLFKLGFDTRFLNPDKEDFFIDFLSIYSNIPKKSLKDAINTKGYIILAYDLTPNMAANIRDLNKKFLAFGVFQNFKDAHDKVWQKQGLNIEVSGVSRHYPYQNSLEPIIGYVQKQEEDKLTLTTGKKGVEKSQDHLLKAQQNGIRTGKRDVSFNFIQNHSYTEVERLDGYEVYLSVPLKLQREIETLLDKTKDKLKAKEILVGIINPKSGEILSLASSKRFNPNAIKTSDYESLNLSVAEKVFEPGSTIKPIVYSLLLDKNLINPKERIDLNHGYYQLGKYTIKDDFIPSKKAVVEDILIQSSNVGMIKISKNLNPKDFYNGLLGYGFSQKTGIDLSLEATGKIPPLSAFKREVLKGSVSYGYGLNATFLQLLRAYAVFSNEGKLTTPYLVQRETAPNGDIYIPSPKPTFQVISPKSARKMKETLIKVVRYGTGKNAQFEGLYIGGKTGTARVAKNGSYSAQSYNSSFFGFAEDERQVFTIGVVILGSHGKEEYYASKIAAPIFKEITEILVRYNYLSPSIAIQNALEKNRFKIK
  protein production: failed

## MDNTRSVYGIDLGTTYSCIAQVDKFDQAIVLRNFEGDATTPSAVYFEDMDHVVVGKEAKGMLATEPTKTAVFIKRHIGVDDSFDKNTNEFPYHYDPTEISAFILKKLVKDANDLGDNPEPIKDVVITCPAYFGTKERMQTKQAGEIAGLNVLSIINEPTAAAISYGVKTDQKKTVLVYDLGGGTFDVTLINVNGGAIKVIATGGDHHLGGVDWDTALAEYMLAAFNEQNNTSYSFEDRLDLKYELLLLAEDKKKVLTAKQTAKATYQYEGNSARIEISRELFNSLTERKLDETIDATKKVIAIAKEKGYNNIDEILLVGGSSRMPQIKERVDKEFNCDAKLTDPDECVAKGAAIYAMNAAYSQAVRDYEEGESDDKPAPLRGDRTTVVNVTSKTYGTDVIIEGQSMVQNLIFANSSLPTKRIETFTTSIPNQRGVSVKVFESDFTNMETESIVEERFCTLIDDHTLKLSKDWPQGTQISVTYQIDQEGILHGLAYVENDKLEFDLKITGVKCEEELRKSKAIIDKASVE
  protein production: failed

## MDPAMSFAEIFTVVVPVFLVIAVGYGTGRRALFDAGGAQALRELTMQLALPAALLLSIWQTPRRVLVEQLPLVGLLAFGLLGVYAVLLGVLRLAGRRPLRRAALFALACVQPQYAFMGTSILGGLFGTAQAAVPIAVAGILVNVVLDPVVLILLGMPEHPASRTAATAAAATSAVRRPALVTVGGGAPGESVEAAAPVAAGDASPEHRPSVLRTVGHALREPFCWGPVLGLILSVGGVGVPKVAGTSLTLLAGAASAAALLYVGVSVSRIGRPKLTPAVWAIALTSVVVLPLLVYGAGLAMASAADAAQAALIVAFPVSPVPLMFAARHGSKADVRTIGSAVVLSLLLSFVTLPLLIELIG
  protein production: not failed

## MDPEKGTIRLDFMHSLGTWMVPELIRTFRAEHPNVEFQLHQAAAMLLVDRVLADETDLALVGPKPAEVGTSLGWAPLLRQRLALAVPADHRLASFSGQGELPLITAAEEPFVAMRAGFGTRLLMDALAEEAGFVPNVVFESME
  protein production: failed

## MDPLLLIGAITAGGVLIGGGVHFVPVGGAPAAMATATGVGTGTAMLAAGAGLTGLITAAAMTGQSPLMIMAAGAVGSMLMIGITMLVGNLIYVYGVGTVPVSAKVAVDPLTGMEQEKYVTPGTEGHGLPTVCFVSGIIGGALGGIGGGLIYWALNEALKTLSYGAIGAAGVAAIFAVGIFFINAVIASYNIGGTIEGFHDPKFKRIGRGIVACLIASIVAGALSTLLVYGGVF
  protein production: failed

## MDPNTVSSFQVDCFLWHVRKRLADQELGDAPFLDRLRRDQKSLRGRGNTLGLDIETATRAGKQIVERILEEEPDEALKMPASRYLTDMTLEEMSRDWFMLMPKQKVAGSLCIKMDQAIMDKTIILKANFSVILDRLETLILLRAFTEEGAIVGEISPLPSLPGHTGEDVKNAIGVLIGGLEWNDNTVRVSETIQRFAWRSSDEDGRLPLPPNQKRKMARTIESEV
  protein production: not failed

## MDPSLHARPHPRRRLRCALLALACGTGAAHAATPPPYLQTQRSFEQRAADLVSRMTLEEKAAQMQNAAPAIPRLGVPAYDWWNEALHGVARAGGATVFPQAIGMAATFDLPLMHEVATAISDEARAKHHRFLRQHQHARYQGLTFWSPNINIFRDPRWGRGQETYGEDPFLTARMGVTFVQGLQGEGSDAPKNAQGERYRKLDATAKHFAVHSGPEADRHHFDARPSQRDLYETYLPAFEALVKDGKVDAVMGAYNRVYGESASASKFLLQDVLRQQWGFKGYVVSDCWAIVDVWKHHKIVATREQAAALAVTHGTELECGEEYSTLPAAVHQGLIDEAQIDTALQTLMTARMRLGMFDPPGQLPWSKIPASVNQSPAHDALARRTARESLVLLKNDGLLPLSRATLKRIAVIGPTADDTMALLGNYYGTPAAPVTVLQGIRAAAPNAQVLYARGADLVEGRNDPAATPLIEPHYLRPSANSPERGLRGEYFRNRDLSGKPALVRVDAQIGFTWDRGSPTDNLLARGEAGPSEAVPADNFSIRWSGQLVPPTTGTYHLEAAADDGVRLYLDGKPVIDRWSTSDRLHADGVDVQLQAGRSYDLRLDYFEGERDAAVRLAWRQPGAKPPLQEALDVARSADVVVFVGGLTGDVEGEEMKVSYPGFAGGDRTDLRLPKPQRELLEALQATGKPVVAVLTAGSALAVDWAQQHVPAILLAWYPGQRGGTAVADTLFGDANPGGRLPVTFYKESETLPAFDDYAMHGRTYRYFGGTPLYPFGHGLSYTQFAYSDLRLDRSTLTADGALTATVAVKNTGQRAGDEVVQLYLHPLKPQRERAGKELRGFQRLALQPGQQRELRFTINAKDALRIYDAQRKAYTVDPGAYEVQIGASSADIRARQRFTVTDK
  protein production: failed

## MDQEAFLRERIEKAQAQLQKLRDENRVLRARQIMWGCIEGTIDVCQLGEKDLQDLSSVIDDYLDSLKSRIEYLKKNGEPSSSLPPRVLQDLNVKEDGDIPSMDGSHHQFETNRLTTITTTADACAPNITNNP
  protein production: failed

## MDQLYQLAQAMIHNDLAVLSNPNVTLMVSGVILCFLVMENGFIPTAFLPGDTLLILTGVLIYQDVLHMGIVPLLMVATFIGTAIGYLQGYFLGHTQMYHRLLSHIDDKHQKKALYLIDKYGILTLLVARYIPFVRTIYPYIIGATGVSWSRFLVINFISSVMWITPLVGFGYVISHSKLANEYQTQFMSIIVYLPIVLLVSGIVTLIYKWLRKKKKL
  protein production: failed

## MDQPWNANIHYDALLDAMVPLGTQCVLDVGCGDGLLAARLARRIPYVTAVDIDAPVLRRAQTRFANAPIRWLHADIMTAELPNAGFDAVVSNAALHHIEDTRTALSRLGGLVTPGGTLAVVTFVTPSLRNGLWHLTSWVACGMANRVKGKWEHSAPIKWPPPQTLHELRSHVRALLPGACIRRLLYGRVLVTWRAPVLEHHHHHH
  protein production: failed

## MDQQSIVSILMILATFGLYIGISIYNRARATSDFYVASRGVPPFWNGMAIGGDWMSAASFIGMAGTIMILGYDGLAYIMGWTGGYLFLTFLFAPQLRKYGRYTVPEFIGDRYGSNTARLIAAIATIIISFTYIIGQLSGSGVVIGRILNIPAMYGTMIGVVVIAIYATLGGMKGITWTQVAQYIILIVAYIIPIVFMSLQLSGNPFPWLTYGNFISQLDGLDQELGLSQILQPFMESDKSQFIALMFTLMVGTAALPHVIVRFYTVTTMKAARWSGAWALIFIALLYLSAPAYAAFSRFILMTQVANQPIDQLPAWTEAWINTGLLEMADANGDGILQWEELRISNDIVVMATPEIANLGMFVIGLVAAGAMAAALSTAGGLLITISSSFAHDIYYRLMNPKASDQKRLLAGRIAIVLATIVAGVVALDPPGVITQIVAWAFGLAGGAFFPVLLLGVWWKRANAKGAIAGMLSGLAVTLVYIFLARTGTFTLFGIQDTGAGLIGVPVNLFVTIVVSLMTAAPSQKLQDEVVDLRYPEQMTYKDGEVWMDESSGK
  protein production: failed
